Experimental data as given in publication PMC5513132, “Two bifunctional enzymes from the marine protist Thraustochytrium roseum: biochemical characterization of wax ester synthase/acyl-CoA:diacylglycerol acyltransferase activity catalyzing wax ester and triacylglycerol synthesis” (Biotechnology for Biofuels, 2017).

Tests used:
Assay in all cases: purified protein
Format in all cases: biochemical, Thraustochytrium roseum
Settings in all cases: 100 μM hexadecanol, pH 7.4, 37 °C, acyl-CoA varied 15-90 μM
[1] = test system: CCCCC/C=C\C/C=C\C/C=C\C/C=C\CCCC(=O)SCCNC(=O)CCNC(=O)[C@H](O)C(C)(C)COP(=O)(O)OP(=O)(O)OC[C@H]1O[C@@H](n2cnc3c(N)ncnc32)[C@H](O)[C@@H]1OP(=O)(O)O
[2] = test system: CCCCCCCCCCCC(=O)SCCNC(=O)CCNC(=O)[C@H](O)C(C)(C)COP(=O)(O)OP(=O)(O)OC[C@H]1O[C@@H](n2cnc3c(N)ncnc32)[C@H](O)[C@@H]1OP(=O)(O)O
[3] = test system: CCCCCCCCCC(=O)SCCNC(=O)CCNC(=O)[C@H](O)C(C)(C)COP(=O)(O)OP(=O)(O)OC[C@H]1O[C@@H](n2cnc3c(N)ncnc32)[C@H](O)[C@@H]1OP(=O)(O)O
[4] = test system: CCCCCCCCCCCCCCCC(=O)SCCNC(=O)CCNC(=O)[C@H](O)C(C)(C)COP(=O)(O)OP(=O)(O)OC[C@H]1O[C@@H](n2cnc3c(N)ncnc32)[C@H](O)[C@@H]1OP(=O)(O)O
[5] = test system: CCCCCCCCCCCCCC(=O)SCCNC(=O)CCNC(=O)[C@H](O)C(C)(C)COP(=O)(O)OP(=O)(O)OC[C@H]1O[C@@H](n2cnc3c(N)ncnc32)[C@H](O)[C@@H]1OP(=O)(O)O
[6] = test system: CCCCCCCCCCCCCCCCCC(=O)SCCNC(=O)CCNC(=O)[C@H](O)C(C)(C)COP(=O)(O)OP(=O)(O)OC[C@H]1O[C@@H](n2cnc3c(N)ncnc32)[C@H](O)[C@@H]1OP(=O)(O)O
[7] = test system: CC/C=C\C/C=C\C/C=C\C/C=C\C/C=C\CCCC(=O)SCCNC(=O)CCNC(=O)[C@H](O)C(C)(C)COP(=O)(O)OP(=O)(O)OC[C@H]1O[C@@H](n2cnc3c(N)ncnc32)[C@H](O)[C@@H]1OP(=O)(O)O
[8] = test system: CCCCC/C=C\C/C=C\C/C=C\CCCCC(=O)SCCNC(=O)CCNC(=O)[C@H](O)C(C)(C)COP(=O)(O)OP(=O)(O)OC[C@H]1O[C@@H](n2cnc3c(N)ncnc32)[C@H](O)[C@@H]1OP(=O)(O)O
[9] = test system: CCCCCCCC(=O)SCCNC(=O)CCNC(=O)[C@H](O)C(C)(C)COP(=O)(O)OP(=O)(O)OC[C@H]1O[C@@H](n2cnc3c(N)ncnc32)[C@H](O)[C@@H]1OP(=O)(O)O
purified protein [10] = substrate: CCCCCCCCCCCCCCCC(=O)SCCNC(=O)CCNC(=O)[C@H](O)C(C)(C)COP(=O)(O)OP(=O)(O)OC[C@H]1O[C@@H](n2cnc3c(N)ncnc32)[C@H](O)[C@@H]1OP(=O)(O)O; remark: listed apart in the source
purified protein [11] = substrate: CC/C=C\C/C=C\C/C=C\C/C=C\C/C=C\CCCC(=O)SCCNC(=O)CCNC(=O)[C@H](O)C(C)(C)COP(=O)(O)OP(=O)(O)OC[C@H]1O[C@@H](n2cnc3c(N)ncnc32)[C@H](O)[C@@H]1OP(=O)(O)O; remark: listed apart in the source
purified protein [12] = substrate: CCCCCCCC(=O)SCCNC(=O)CCNC(=O)[C@H](O)C(C)(C)COP(=O)(O)OP(=O)(O)OC[C@H]1O[C@@H](n2cnc3c(N)ncnc32)[C@H](O)[C@@H]1OP(=O)(O)O; remark: listed apart in the source
purified protein [13] = substrate: CCCCC/C=C\C/C=C\C/C=C\CCCCC(=O)SCCNC(=O)CCNC(=O)[C@H](O)C(C)(C)COP(=O)(O)OP(=O)(O)OC[C@H]1O[C@@H](n2cnc3c(N)ncnc32)[C@H](O)[C@@H]1OP(=O)(O)O; remark: listed apart in the source
purified protein [14] = substrate: CCCCCCCCCC(=O)SCCNC(=O)CCNC(=O)[C@H](O)C(C)(C)COP(=O)(O)OP(=O)(O)OC[C@H]1O[C@@H](n2cnc3c(N)ncnc32)[C@H](O)[C@@H]1OP(=O)(O)O; remark: listed apart in the source
purified protein [15] = substrate: CCCCCCCCCCCCCCCCCC(=O)SCCNC(=O)CCNC(=O)[C@H](O)C(C)(C)COP(=O)(O)OP(=O)(O)OC[C@H]1O[C@@H](n2cnc3c(N)ncnc32)[C@H](O)[C@@H]1OP(=O)(O)O; remark: listed apart in the source
purified protein [16] = substrate: CCCCC/C=C\C/C=C\C/C=C\C/C=C\CCCC(=O)SCCNC(=O)CCNC(=O)[C@H](O)C(C)(C)COP(=O)(O)OP(=O)(O)OC[C@H]1O[C@@H](n2cnc3c(N)ncnc32)[C@H](O)[C@@H]1OP(=O)(O)O; remark: listed apart in the source
purified protein [17] = substrate: CCCCCCCCCCCC(=O)SCCNC(=O)CCNC(=O)[C@H](O)C(C)(C)COP(=O)(O)OP(=O)(O)OC[C@H]1O[C@@H](n2cnc3c(N)ncnc32)[C@H](O)[C@@H]1OP(=O)(O)O; remark: listed apart in the source
purified protein [18] = substrate: CCCCCCCCCCCCCC(=O)SCCNC(=O)CCNC(=O)[C@H](O)C(C)(C)COP(=O)(O)OP(=O)(O)OC[C@H]1O[C@@H](n2cnc3c(N)ncnc32)[C@H](O)[C@@H]1OP(=O)(O)O; remark: listed apart in the source

TrWSD5 (ΔTmTrWSD5) (Thraustochytrium roseum; DEL472-494)
Km [1]: 226.35 µM
Vmax [1]: 0.103 µmol/min/mg
kcat [1]: 0.165 s⁻¹
kcat/Km [1]: 729 M⁻¹ s⁻¹
Km [2]: 25.93 µM
Vmax [2]: 0.152 µmol/min/mg
kcat [2]: 0.243 s⁻¹
kcat/Km [2]: 9370 M⁻¹ s⁻¹
Km [3]: 0.96 µM
Vmax [3]: 0.0589 µmol/min/mg
kcat [3]: 0.0941 s⁻¹
kcat/Km [3]: 98300 M⁻¹ s⁻¹
Km [4]: 24.77 µM
Vmax [4]: 0.213 µmol/min/mg
kcat [4]: 0.341 s⁻¹
kcat/Km [4]: 13700 M⁻¹ s⁻¹
Km [5]: 18.5 µM
Vmax [5]: 0.207 µmol/min/mg
kcat [5]: 0.331 s⁻¹
kcat/Km [5]: 17900 M⁻¹ s⁻¹
Km [6]: 75.87 µM
Vmax [6]: 0.379 µmol/min/mg
kcat [6]: 0.604 s⁻¹
kcat/Km [6]: 7960 M⁻¹ s⁻¹
Km [7]: 106.2 µM
Vmax [7]: 0.312 µmol/min/mg
kcat [7]: 0.498 s⁻¹
kcat/Km [7]: 4690 M⁻¹ s⁻¹
Km [8]: 284.68 µM
Vmax [8]: 0.152 µmol/min/mg
kcat [8]: 0.242 s⁻¹
kcat/Km [8]: 850 M⁻¹ s⁻¹
Km [9]: 12.25 µM
Vmax [9]: 0.0639 µmol/min/mg
kcat [9]: 0.102 s⁻¹
kcat/Km [9]: 8330 M⁻¹ s⁻¹

B1: TrWSD4 (Thraustochytrium roseum) (protein)
chain: MAENNNHLDEAVVDEAQREQDVEVEEEVEEEEEEEEEEEEEAVVEDVKATLADGPAEKSPKVAPKQTKRKGRRVKHRASVTTRLIGNLQREAQSKSSWVVGLLFFKSDPGFEAVRETVGKRLLQIPRFRSKLTARRFPAKMEFVELDDDEIDMDYHFRQAFQDRTATLDEVDEFVGSMFDGFNHPMDKPLWQITYIPKLEDGRAVLITNISHIVGDGIAQVEVLMRLLDPVKESKGEKVQKPRTGANKKRKPPALGPFTKAKVFMGGVWEGFFSVISSPDKKNTLRLKDVNKPSPTKRCTFSETIPLDKVKELKNMYEGATLNDVLVTLLTLTLRAYFREVGDKGALRNKVRAQFPINIRSKSEGPFRNDNPRNKFTYGFMPFHVSGNRDASATFWRTKRTLDKIKSSPSPVVQHQVGKVISNIMPLKALNAQLLNLAAKATAQVSNVPGPQDAVTVAGTEVDDMRFLLYSPLSFYVGLLTYNGNLSASFCIDSALADPRLISKHWLPEFEKFYAHAKEAAGESGLIRKPRSCLDCL
Km (purified protein [10]): 3.08 µM
Vmax (purified protein [10]): 0.0255 µmol/min/mg
kcat (purified protein [10]): 0.032 s⁻¹
kcat/Km (purified protein [10]): 10400 M⁻¹ s⁻¹
Km (purified protein [11]): 131.16 µM
Vmax (purified protein [11]): 0.00905 µmol/min/mg
kcat (purified protein [11]): 0.0114 s⁻¹
kcat/Km (purified protein [11]): 86.6 M⁻¹ s⁻¹
Km (purified protein [12]): 29.93 µM
Vmax (purified protein [12]): 0.0148 µmol/min/mg
kcat (purified protein [12]): 0.0185 s⁻¹
kcat/Km (purified protein [12]): 619 M⁻¹ s⁻¹
Km (purified protein [13]): 280.86 µM
Vmax (purified protein [13]): 0.0188 µmol/min/mg
kcat (purified protein [13]): 0.0236 s⁻¹
kcat/Km (purified protein [13]): 84 M⁻¹ s⁻¹
Km (purified protein [14]): 17.6 µM
Vmax (purified protein [14]): 0.0122 µmol/min/mg
kcat (purified protein [14]): 0.0154 s⁻¹
kcat/Km (purified protein [14]): 873 M⁻¹ s⁻¹
Km (purified protein [15]): 19.15 µM
Vmax (purified protein [15]): 0.0302 µmol/min/mg
kcat (purified protein [15]): 0.0379 s⁻¹
kcat/Km (purified protein [15]): 1980 M⁻¹ s⁻¹
Km (purified protein [16]): 297.17 µM
Vmax (purified protein [16]): 0.0118 µmol/min/mg
kcat (purified protein [16]): 0.0148 s⁻¹
kcat/Km (purified protein [16]): 49.9 M⁻¹ s⁻¹
Km (purified protein [17]): 0.14 µM
Vmax (purified protein [17]): 0.0161 µmol/min/mg
kcat (purified protein [17]): 0.0202 s⁻¹
kcat/Km (purified protein [17]): 146000 M⁻¹ s⁻¹
Km (purified protein [18]): 3.94 µM
Vmax (purified protein [18]): 0.0202 µmol/min/mg
kcat (purified protein [18]): 0.0254 s⁻¹
kcat/Km (purified protein [18]): 6440 M⁻¹ s⁻¹
